In the supplement of paper PMC10567573 one finds protein stability index data, which are given here for 36 sequences.

The series in a line: protein stability index of a GFP-peptide fusion (GPS, HEK-293T) (PSI 1-6); higher = more stable. Particulars: c terminus: a fixed tail appended.

± gives the standard deviation.
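Further: 24-mer peptide tiles fused after GFP, lentivirally expressed, FACS-sorted into six equal bins by GFP/DsRed ratio, decoded by Illumina sequencing, PSI is the read-weighted mean bin number.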

Turning to ISAVNYDFDEEYFSNTSELAKDFI [DAPK3], the protein stability index came to 3.01 ± 0.21 (treatment: DMSO) and 3.28 ± 0.58 (treatment: MLN4924 1 uM, 8 h).

Regarding ISFHFEVTNHNIRLFEDVRSWMFR [TRIM43], the protein stability index was 2.7 ± 0.96 (treatment: DMSO) and 3.24 ± 0.28 (treatment: MLN4924 1 uM, 8 h).

Turning to ISQHGDPLLSNTFTETNNHWPQGP [EMID1], the protein stability index was determined as 3.87 ± 0.29 (treatment: DMSO) and 4.08 ± 0.16 (treatment: MLN4924 1 uM, 8 h).

Consider ISSSSFGAEPSAPGGGGSPGACPA [RTN3], for which the protein stability index amounted to 4.72 ± 0.51 (treatment: DMSO) and 4.97 ± 0.089 (treatment: MLN4924 1 uM, 8 h).

As for ISSVLAGGSCRAPSTYGGGLSVSS [KRT16], the protein stability index reads like this: (treatment: DMSO) 2.38 ± 0.33; (treatment: MLN4924 1 uM, 8 h) 2.27 ± 0.27.

Turning to ITAGAHRLWSHRSYKARLPLRLFL [SCD], the protein stability index reads like this: (treatment: DMSO) 2.6 ± 0.63; (treatment: MLN4924 1 uM, 8 h) 2.47 ± 0.64.

With ITEEKVCMVCKKKIGNSAFARYPN [VPS39], the protein stability index by setting is: (treatment: DMSO) 2.73 ± 0.31; (treatment: MLN4924 1 uM, 8 h) 3.43 ± 0.53.

Regarding ITESFTELARIVLLRHGMDRLWRP [RAB40B], the protein stability index is 2.84 ± 0.1 (treatment: DMSO) and 2.86 ± 0.25 (treatment: MLN4924 1 uM, 8 h).

As for ITTRVNSEQEHFLIVPFGLLYSEV [ADD1], the protein stability index runs as follows: (treatment: DMSO) 2.74 ± 0.79; (treatment: MLN4924 1 uM, 8 h) 2.61 ± 0.81.

Take ITYESSQVDPGTDLEPGVLMSAQT [EPB41L3]: the protein stability index reads like this: (treatment: DMSO) 4.29 ± 0.33; (treatment: MLN4924 1 uM, 8 h) 4.7 ± 0.085.

In turn, IVETLTVGCKGSKAGIEQEGYWLP [ZMYND11] returned a protein stability index (treatment: DMSO) of 2.21 ± 0.18 and a protein stability index (treatment: MLN4924 1 uM, 8 h) of 2.26 ± 0.14.

Consider IVSLLLGTIHALIFAWNKWIDIKQ [STEAP1], for which the protein stability index is 2.06 ± 0.44 (treatment: DMSO) and 2.17 ± 0.29 (treatment: MLN4924 1 uM, 8 h).

Consider KADLEVSNRHGHTCLMISCYKGHK [FEM1C], for which the protein stability index reads like this: (treatment: DMSO) 3.03 ± 0.36; (treatment: MLN4924 1 uM, 8 h) 2.91 ± 0.33.

In the case of KAGSSEWLAVDGLVSPSNNSKEDA [ATF4], the protein stability index is, setting by setting: (treatment: DMSO) 5.13 ± 0.19; (treatment: MLN4924 1 uM, 8 h) 5.14 ± 0.25.

Turning to KAHSGRIPISLETQAHIQECKHPS [MCOLN1], the protein stability index runs as follows: (treatment: DMSO) 4.5 ± 0.12; (treatment: MLN4924 1 uM, 8 h) 4.65 ± 0.14.

KAMLQLHERGLKLHQTIYNQACKL [INTS4]: the protein stability index worked out at 2.23 ± 0.44 (treatment: DMSO) and 2.21 ± 0.26 (treatment: MLN4924 1 uM, 8 h).

For the sequence KAQIWDTAGQERYRAITSAYYRGA [RAB11A], the protein stability index worked out at 2.88 ± 0.16 (treatment: DMSO) and 2.98 ± 0.31 (treatment: MLN4924 1 uM, 8 h).

On to KARSYSYPHCTGISQQDPESDSQG [ZC2HC1C], for which the protein stability index (treatment: DMSO) was 5.28 ± 0.28 and the protein stability index (treatment: MLN4924 1 uM, 8 h) amounted to 5.25 ± 0.076.

Turning to KAVEEELDAEDRPAWNSKLQYILA [SLC6A17], the protein stability index is, setting by setting: (treatment: DMSO) 2.96 ± 0.38; (treatment: MLN4924 1 uM, 8 h) 3.15 ± 0.24.

As to KCLKFLGSRHPTLVLPLVPELLST [INTS4], the protein stability index runs as follows: (treatment: DMSO) 2.29 ± 0.41; (treatment: MLN4924 1 uM, 8 h) 2.23 ± 0.18.

As to KDGKNWNSNQATDIMETSGWKSMI [SPOPL], the protein stability index reads like this: (treatment: DMSO) 3.38 ± 0.32; (treatment: MLN4924 1 uM, 8 h) 3.54 ± 0.4.

For KDIAPEKQLLNSAVIAQQRRKPDP [DLC1], the protein stability index came out at 5 ± 0.086 (treatment: DMSO) and 5.25 ± 0.17 (treatment: MLN4924 1 uM, 8 h).

As to KDVMEKREDSKEAEKSGEATDGAR [CHGA], the protein stability index is 5.79 ± 0.11 (treatment: DMSO) and 5.68 ± 0.37 (treatment: MLN4924 1 uM, 8 h).

Turning to KEASRHAIMRSPQMVSAIVRTMQN [CTNNB1], the protein stability index is, setting by setting: (treatment: DMSO) 3.15 ± 0.32; (treatment: MLN4924 1 uM, 8 h) 3.3 ± 0.35.

As for KECVSILPRKESPSVRSSKDGKLL [TNFSF13B], the protein stability index by setting is: (treatment: DMSO) 4.53 ± 0.11; (treatment: MLN4924 1 uM, 8 h) 4.56 ± 0.091.

With KEDLIIPHHHSFYDFIVTKARGKS [FAM50A], the protein stability index runs as follows: (treatment: DMSO) 3.4 ± 0.095; (treatment: MLN4924 1 uM, 8 h) 3.73 ± 0.16.

Consider KEIESQGSIPGFLISSGMSSHKQG [TAF7L], for which the protein stability index (treatment: DMSO) amounted to 4.42 ± 0.2 and the protein stability index (treatment: MLN4924 1 uM, 8 h) came out at 4.11 ± 0.48.

For KEVGSHFDDFVTNLIEKSASLDNG [SOAT1], the protein stability index came out at 4.19 ± 0.26 (treatment: DMSO) and 4.46 ± 0.37 (treatment: MLN4924 1 uM, 8 h).

KFKGWVSYSTSEQAELSYKKVSEG [DLC1]: the protein stability index by setting is: (treatment: DMSO) 3.52 ± 0.22; (treatment: MLN4924 1 uM, 8 h) 3.54 ± 0.39.

Regarding KFYAVLKGTILYLQKDEYRPDKAL [PSD2], the protein stability index worked out at 2.83 ± 0.53 (treatment: DMSO) and 2.58 ± 0.44 (treatment: MLN4924 1 uM, 8 h).

Turning to KIKDARKGPLVPFPNQKSEAAEPP [KMT5A], the protein stability index reads like this: (treatment: DMSO) 4.95 ± 0.22; (treatment: MLN4924 1 uM, 8 h) 5.11 ± 0.19.

With KIKDEVHPEVKCVGSVALTALVTV [C8orf76], the protein stability index reads like this: (treatment: DMSO) 2.61 ± 0.26; (treatment: MLN4924 1 uM, 8 h) 2.11 ± 0.85.

With KIYFTDSSSKWQRRDYLLLVMEGT [APMAP], the protein stability index reads like this: (treatment: DMSO) 2.68 ± 0.45; (treatment: MLN4924 1 uM, 8 h) 2.15 ± 0.37.

Consider KKVLNLLKGAFPARLKKVLIVGAP [PTPN9], for which the protein stability index (treatment: DMSO) worked out at 2.81 ± 0.83 and the protein stability index (treatment: MLN4924 1 uM, 8 h) came to 2.99 ± 0.43.

With KLDPTLSSCFFIESCGAQVPVEGS, the protein stability index is, setting by setting: (treatment: DMSO) 3.02 ± 0.41; (treatment: MLN4924 1 uM, 8 h) 3.04 ± 0.5.

For KLKESTVRRRYSDFEWLRSELERE [SNX3], the protein stability index runs as follows: (treatment: DMSO) 2.99 ± 0.44; (treatment: MLN4924 1 uM, 8 h) 3.13 ± 0.31.
